Literature values as cited in patent US20220280439A1, “METHODS FOR LOWERING THE INFECTION RATE OF VIRUSES” (Finncure Oy, priority 2020, published 2022).

Target: ACE2 (Homo sapiens, UniProt Q9BYF1)
Settings: simulation, ref [8]; for binding affinity towards the ACE2 receptor: compared with hexapeptide YKYRYL

Chain of ACE2 (Q9BYF1 18-805): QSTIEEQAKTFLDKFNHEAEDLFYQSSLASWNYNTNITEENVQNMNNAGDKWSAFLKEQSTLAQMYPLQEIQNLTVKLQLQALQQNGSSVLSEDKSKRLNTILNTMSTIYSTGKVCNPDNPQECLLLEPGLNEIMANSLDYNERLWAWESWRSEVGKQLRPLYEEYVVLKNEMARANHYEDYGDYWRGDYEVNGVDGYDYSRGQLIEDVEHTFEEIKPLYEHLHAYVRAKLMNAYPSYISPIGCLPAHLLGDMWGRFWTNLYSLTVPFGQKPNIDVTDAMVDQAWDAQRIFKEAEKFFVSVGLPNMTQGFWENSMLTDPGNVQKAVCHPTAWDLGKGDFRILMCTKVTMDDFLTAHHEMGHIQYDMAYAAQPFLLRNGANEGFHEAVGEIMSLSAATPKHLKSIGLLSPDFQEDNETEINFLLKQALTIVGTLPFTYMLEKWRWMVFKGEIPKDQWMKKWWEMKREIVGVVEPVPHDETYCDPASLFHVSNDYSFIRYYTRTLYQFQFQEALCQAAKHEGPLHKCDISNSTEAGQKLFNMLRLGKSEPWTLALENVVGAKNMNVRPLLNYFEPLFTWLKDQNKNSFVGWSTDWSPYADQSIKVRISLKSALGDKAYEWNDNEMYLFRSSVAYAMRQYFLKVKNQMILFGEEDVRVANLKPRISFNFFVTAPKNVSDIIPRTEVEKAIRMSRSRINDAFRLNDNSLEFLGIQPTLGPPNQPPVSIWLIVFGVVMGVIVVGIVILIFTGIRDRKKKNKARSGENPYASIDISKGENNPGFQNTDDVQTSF

Substance	binding affinity towards the ACE2 receptor	Kd (binding to ACE2, estimated) [µM]
YKYNYI (Potential alternative synthetic hexapeptide variant) [alternative synthetic hexapeptide variant from simulation]	even stronger binding affinity	–
YKYRYL	–	46
YKYNYL (Potential alternative synthetic hexapeptide variant) [alternative synthetic hexapeptide variant from simulation]	even stronger binding affinity	–
